This data set has as its target T1, HTkC (Thermococcus kodakarensis, UniProt Q5JDW7).
T1 sequence: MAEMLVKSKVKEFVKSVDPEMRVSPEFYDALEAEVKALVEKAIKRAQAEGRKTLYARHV
Put plainly: X-ray crystallography; 1.95 A; EMSA: 50 mM Tris-HCl pH 7.0, 75 mM KCl, 14.5% glycerol, room temperature 30 min, gel in 0.5x TBE at 4 C; TPM: 50 mM Tris pH 7.0, 75 mM KCl. The note with it: protein: recombinant; chain copies: 4; blunt. (A gel shift assay detects complexes by their altered migration in electrophoresis.)

B1: 30 bp-GC50 (dsDNA)
DNA 1: TTAAAGCCCGTTAAAGCCCGTTAAAGCCCG
DNA 2: CGGGCTTTAACGGGCTTTAACGGGCTTTAA
B1: the binding result is “binds”.

These data come from publication doi:10.64898/2025.12.06.692711, “Archaeal histone HTkC hypercompacts DNA”.
